In US20120134979A1, “METHODS AND COMPOSITIONS FOR THE TREATMENT OF SICKLE CELL DISEASE” (priority 2010, published 2012):

What was measured:
RBCs from SCD patients = assay: Hypoxia-induced sickling of RBCs from SCD patients; format: cell-based, human; details: RBCs from individuals with SCD, hypoxic conditions
Protocol: Isolation of total erythrocytes and treatment of human and mouse erythrocytes in vitro. Blood collected with heparin as an anti-coagulant was centrifuged at 240×g for 10 min at room temperature, followed by aspiration of plasma and white interface. Packed red blood cells (RBCs) were washed 3 times with culture media (F-10 Ham's with 1% penicillin/streptomycin, 10% fetal bovine serum (FBS), and re-suspended to 4% hematocrit (HCT). One ml of RBCs was added to each well of a 12-well plate. Normal RBCs purified from humans were treated with different concentrations of 5′-(N-ethyl-carboxamido) adenosine (NECA, an adenosine receptor agonist, Sigma-Aldrich, St. Louis, Mo.) ranging from 1-50 μM for different time points (from 1 to 18 hr) under normoxic conditions. Normal RBCs were treated with 10 μM NECA in the presence or absence of adenosine receptor antagonists, including theophylline, PSB36, SCH442416, MRS1754 and MRS3777 (Tocris Bioscience, St. Louis, Mo.) at 10 μM. In addition, normal RBCs were treated directly with the A2BR agonist (BAY 60-6583, Bayer HealthCare AG, Wuppertal, Germany) or the A2AR agonist (CGS21680) (Tocris). Similarly, the mouse RBCs were treated with or without NECA at 10 μM in the presence or absence of theophylline (10 μM). In addition, RBCs purified from 4 adenosine receptor deficient mice were treated with 10 μM NECA. After 18 hours, cells were collected and 2,3-DPG levels were measured as described below. RBCs were purified from SCD patients and treated with or without 10 μM NECA, 5 units/ml polyethylene glycol-adenosine deaminase (PEG-ADA) or 3 mmol/L glycolic acid (Sigma-Aldrich), 10 μM MRS1754 (A2BR antagonist) under ambient oxygen (normoxia) or different levels of hypoxic conditions (for 3 hours with shaking at 37° C. At the end of experiments, 2,3-DPG levels were measured and the percentage of sickled cells determined as described below.
Morphological study of erythrocytes and quantification of reticulocytes by flow cytometry. Blood smears were stained using the WG16-500 ml kit (Sigma-Aldrich) for sickled cells and observed using 100× oil immersion objective of Olympus BX60 microscope. […] The percentages of sickled cells among the counted cells were calculated. Reticulocyte was labeled by Retic-COUNT Reagent (Becton Dickinson) and quantified by flow cytometry (Perumbeti, et al., A novel human gamma-globin gene vector for genetic correction of sickle cell anemia in a humanized sickle mouse model: critical determinants for successful correction. Blood. 2009; 114(6):1174-1185).

SCD Tg mice [1] = assay: Lung inflammation (neutrophils, cytokines) after hypoxia/reoxygenation in SCD Tg mice; format: in vivo, mouse; details: hypoxia-reoxygenation
Source text: Hypoxia/reoxygenation of SCD Tg mice. SCD Tg mice were subjected to two-hour hypoxic condition with 8% oxygen. After hypoxia, mice were returned to normoxic conditions for four hours Wallace, et al. NKT cells mediate pulmonary inflammation and dysfunction in murine sickle cell disease through production of IFN-gamma and CXCR3 chemokines. Blood. 2009; 114(3):667-676). At the end of the experiments, mice were sacrificed and blood collected for adenosine measurement, sickling and hemolytic analysis.
Immunohistochemistry to assess neutrophil infiltration in the lung. To quantify neutrophils, a specific neutrophil antibody, was used as described (Zhou, et al., Enhanced airway inflammation and remodeling in adenosine deaminase-deficient mice lacking the A2B adenosine receptor. J. Immunol. 2009; 182(12):8037-8046). Rehydrated slides were quenched with 3% hydrogen peroxide, Ag retrieval performed (Dako), and endogenous avidin and biotin blocked with a Biotin Blocking System (Dako). […] Quantification of distal airway neutrophils-positive cells was performed on 20 fields/mouse lung section at ×20 using software analysis (Image Pro Plus 4.0; Media Cybernetics, Bethesda, Md., USA).
ELISA for INF-γ, IL-6, IL-1β and GM-CSF measurement in the mouse lung homongenates. INF-γ, IL-6, IL-1β and GM-CSF levels in lung homogenates were determined using ELISA kits (QUANGI).

SCD Tg mice [2] = assay: Life span of RBCs in SCD Tg mice (in vivo biotin labelling); parameters: species or system mouse
Protocol: Measurement of life span of RBCs in SCD Tg mice. SCD Tg mice were treated with or without PEG ? ADA (2.5 unit/week) for 8 weeks. At 6 week-treatment, RBCs were labeled in vivo by using N-hydroxysuccinimide (NHS) biotin and the life span of circulating red blood cells was measured as described (Perumbeti, et al. A novel human gamma-globin gene vector for genetic correction of sickle cell anemia in a humanized sickle mouse model: critical determinants for successful correction. Blood. 2009; 114(6):1174-1185).
Specifically, 50 mg/kg of NHS biotin was injected into the retro-orbital plexus of SCD Tg mice (prepared in 100 μl sterile saline just prior to injection; initially dissolved at 50 mg/ml in N,—N,-dimethylacetamide) Blood samples (only 5 μl) were collected after first day of biotin-injection from tail vein by venipuncture to determine the percentage of RBCs labeled with biotin. Subsequently, 5 μl of blood were obtained by tail vein every 3 days for measurement of biotinylated RBCs until the 10th day. The percentage of biotinylated RBCs was calculated by determining the fraction of peripheral blood cells labeled with Ter-119 (to identify RBCs) that were also labeled with a streptavidin-conjugated fluorochrome by flow cytometry.

B1: PEG-ADA: polyethylene glycol-modified adenosine deaminase, a drug used to lower adenosine concentrations in ADA-deficient humans (protein, UniProt P56658 2-363, looked up)
Adenosine deaminase: AQTPAFNKPKVELHVHLDGAIKPETILYYGRKRGIALPADTPEELQNIIGMDKPLSLPEFLAKFDYYMPAIAGCREAVKRIAYEFVEMKAKDGVVYVEVRYSPHLLANSKVEPIPWNQAEGDLTPDEVVSLVNQGLQEGERDFGVKVRSILCCMRHQPSWSSEVVELCKKYREQTVVAIDLAGDETIEGSSLFPGHVKAYAEAVKSGVHRTVHAGEVGSANVVKEAVDTLKTERLGHGYHTLEDATLYNRLRQENMHFEVCPWSSYLTGAWKPDTEHPVVRFKNDQVNYSLNTDDPLIFKSTLDTDYQMTKNEMGFTEEEFKRLNINAAKSSFLPEDEKKELLDLLYKAYGMPSPASAEQCL
modifications: PEGylated
B1 was tested, and the “percentage of sickled cells” value (RBCs from SCD patients) was “significantly reduced”, the “neutrophil infiltration in the lungs” value (SCD Tg mice [1]; image quantification) was “significantly lowered” and the “proinflammatory cytokines in the lungs (INF-γ, IL-6, IL-1β and GM-CSF)” value (SCD Tg mice [1]; lung homogenates) was “significantly decreased”. For the same molecule, the “fold increase of half-life of RBCs” value (SCD Tg mice [2]; chronic treatment vs untreated) was 2 fold and the “half-life of RBCs” value (SCD Tg mice [2]; chronic treatment, untreated 2 days) was 96 h.
